Key:
Assay in all cases: Kinase Profiling Assay
Format in all cases: biochemical
Details in all cases: 100 μM
Met(D1246H) (h) = Met(D1246H) (h) (Homo sapiens, UniProt P08581, D1228H)
In short: (§1)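 Activity remaining relative to an uninhibited control was determined by scintillation counting of labeled substrate bound to a negatively charged filter. Radiolabeled phosphate came from ATP; the substrate carried positive charge. Duplicate measurements, within a 266-kinase human panel.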

Fyn (h) = molecular target: T1, Fyn (h) (Homo sapiens, UniProt P06241)
T1 construct: purchased Millipore
In short: as §1

BrSK2 (h) = molecular target: T2, BrSK2 (h) (Homo sapiens, UniProt Q8IWQ3)
T2 sequence (Q8IWQ3 1-736): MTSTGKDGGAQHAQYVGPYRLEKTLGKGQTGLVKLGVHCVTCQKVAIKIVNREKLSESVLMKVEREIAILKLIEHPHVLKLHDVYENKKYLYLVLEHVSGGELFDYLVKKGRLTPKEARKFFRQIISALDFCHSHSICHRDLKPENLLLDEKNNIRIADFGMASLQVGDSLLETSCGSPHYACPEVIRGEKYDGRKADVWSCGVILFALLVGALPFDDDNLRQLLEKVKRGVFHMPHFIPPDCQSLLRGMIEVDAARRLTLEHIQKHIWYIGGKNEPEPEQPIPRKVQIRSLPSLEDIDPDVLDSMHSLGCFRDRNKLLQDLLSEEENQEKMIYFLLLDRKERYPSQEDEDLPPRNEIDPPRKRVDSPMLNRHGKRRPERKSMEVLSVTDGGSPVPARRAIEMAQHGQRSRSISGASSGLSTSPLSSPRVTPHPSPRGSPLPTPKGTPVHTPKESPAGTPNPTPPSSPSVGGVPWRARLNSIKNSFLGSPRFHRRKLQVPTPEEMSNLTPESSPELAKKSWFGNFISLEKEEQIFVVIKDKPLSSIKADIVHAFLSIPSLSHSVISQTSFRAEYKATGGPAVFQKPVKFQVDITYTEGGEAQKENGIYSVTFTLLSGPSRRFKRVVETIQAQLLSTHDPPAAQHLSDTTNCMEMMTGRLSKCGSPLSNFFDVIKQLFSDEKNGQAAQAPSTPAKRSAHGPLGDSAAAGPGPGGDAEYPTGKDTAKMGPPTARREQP
In short: as §1

DAPK2 (h) = molecular target: T3, DAPK2 (h) (Homo sapiens, UniProt Q9UIK4)
T3 construct: purchased Millipore
In short: as §1

DCAMKL2 (h) = molecular target: T4, DCAMKL2 (h) (Homo sapiens, UniProt Q8N568)
T4 construct: purchased Millipore
T4 sequence (Q8N568 1-766): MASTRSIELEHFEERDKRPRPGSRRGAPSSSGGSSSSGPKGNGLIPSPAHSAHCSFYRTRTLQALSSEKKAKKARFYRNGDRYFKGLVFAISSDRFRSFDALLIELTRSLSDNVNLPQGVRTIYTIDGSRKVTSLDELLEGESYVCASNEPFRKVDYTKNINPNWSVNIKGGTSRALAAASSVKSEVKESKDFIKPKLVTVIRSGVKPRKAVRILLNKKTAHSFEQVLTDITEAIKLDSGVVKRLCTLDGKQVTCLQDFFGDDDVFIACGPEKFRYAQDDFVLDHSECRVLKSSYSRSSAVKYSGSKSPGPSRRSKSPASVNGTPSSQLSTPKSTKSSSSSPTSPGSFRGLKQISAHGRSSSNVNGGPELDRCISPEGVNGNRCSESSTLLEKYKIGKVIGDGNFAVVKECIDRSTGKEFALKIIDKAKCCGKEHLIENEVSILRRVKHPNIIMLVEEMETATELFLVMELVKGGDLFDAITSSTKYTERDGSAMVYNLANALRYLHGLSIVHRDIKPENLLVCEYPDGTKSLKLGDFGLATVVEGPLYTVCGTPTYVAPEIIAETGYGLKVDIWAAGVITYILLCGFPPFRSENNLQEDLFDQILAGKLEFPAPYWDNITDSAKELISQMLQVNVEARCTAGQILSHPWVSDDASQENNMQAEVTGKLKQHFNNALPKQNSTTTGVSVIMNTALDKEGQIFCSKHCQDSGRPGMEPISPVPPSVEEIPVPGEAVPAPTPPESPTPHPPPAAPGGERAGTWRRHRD
In short: as §1

Hck (h) activated = molecular target: T5, Hck (h) activated (Homo sapiens, UniProt P08631)
T5 construct: purchased Millipore
In short: as §1

CHK2(I157T) (h) = molecular target: T6, CHK2(I157T) (h) (Homo sapiens, UniProt O96017, I157T)
T6 construct: purchased Millipore
In short: as §1

T5 sequence (P08631 whole entry): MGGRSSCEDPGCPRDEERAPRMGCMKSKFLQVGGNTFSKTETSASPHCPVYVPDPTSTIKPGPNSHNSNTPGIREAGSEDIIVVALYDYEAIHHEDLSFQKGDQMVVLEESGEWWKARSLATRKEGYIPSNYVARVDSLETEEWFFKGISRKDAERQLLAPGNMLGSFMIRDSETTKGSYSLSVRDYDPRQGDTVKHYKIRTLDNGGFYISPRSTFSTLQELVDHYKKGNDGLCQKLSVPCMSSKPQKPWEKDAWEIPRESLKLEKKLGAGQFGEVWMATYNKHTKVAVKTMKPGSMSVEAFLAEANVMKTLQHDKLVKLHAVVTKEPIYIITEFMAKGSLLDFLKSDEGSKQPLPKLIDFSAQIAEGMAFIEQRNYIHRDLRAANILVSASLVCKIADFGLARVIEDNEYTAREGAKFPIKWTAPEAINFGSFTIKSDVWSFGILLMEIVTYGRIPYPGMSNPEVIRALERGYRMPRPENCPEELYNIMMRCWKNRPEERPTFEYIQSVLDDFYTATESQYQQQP
T3 sequence (Q9UIK4 whole entry): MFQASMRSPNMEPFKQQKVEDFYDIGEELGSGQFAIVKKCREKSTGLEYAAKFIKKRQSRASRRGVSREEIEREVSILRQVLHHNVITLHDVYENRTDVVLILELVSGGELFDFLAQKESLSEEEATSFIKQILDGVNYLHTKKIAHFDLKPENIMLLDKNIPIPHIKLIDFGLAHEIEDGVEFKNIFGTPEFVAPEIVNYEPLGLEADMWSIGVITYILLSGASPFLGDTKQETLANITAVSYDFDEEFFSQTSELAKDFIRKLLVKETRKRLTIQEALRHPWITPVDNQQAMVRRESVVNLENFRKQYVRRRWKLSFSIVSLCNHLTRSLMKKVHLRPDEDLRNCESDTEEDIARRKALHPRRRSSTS
T6 sequence (O96017 whole entry I157T): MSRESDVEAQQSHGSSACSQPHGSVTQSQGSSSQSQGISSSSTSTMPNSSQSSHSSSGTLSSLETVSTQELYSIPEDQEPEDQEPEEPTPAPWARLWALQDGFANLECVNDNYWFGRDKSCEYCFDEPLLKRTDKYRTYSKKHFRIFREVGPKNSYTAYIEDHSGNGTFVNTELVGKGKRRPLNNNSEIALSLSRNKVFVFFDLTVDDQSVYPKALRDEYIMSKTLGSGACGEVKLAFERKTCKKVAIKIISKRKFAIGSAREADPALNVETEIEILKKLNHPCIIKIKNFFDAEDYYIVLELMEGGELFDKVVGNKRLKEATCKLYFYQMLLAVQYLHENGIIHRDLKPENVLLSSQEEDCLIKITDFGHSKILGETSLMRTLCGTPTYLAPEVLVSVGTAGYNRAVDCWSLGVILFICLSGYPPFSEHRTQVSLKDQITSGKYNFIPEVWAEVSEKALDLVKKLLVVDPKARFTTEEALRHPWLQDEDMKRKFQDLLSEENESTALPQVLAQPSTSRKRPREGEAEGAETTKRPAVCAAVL
T1 sequence (P06241 whole entry): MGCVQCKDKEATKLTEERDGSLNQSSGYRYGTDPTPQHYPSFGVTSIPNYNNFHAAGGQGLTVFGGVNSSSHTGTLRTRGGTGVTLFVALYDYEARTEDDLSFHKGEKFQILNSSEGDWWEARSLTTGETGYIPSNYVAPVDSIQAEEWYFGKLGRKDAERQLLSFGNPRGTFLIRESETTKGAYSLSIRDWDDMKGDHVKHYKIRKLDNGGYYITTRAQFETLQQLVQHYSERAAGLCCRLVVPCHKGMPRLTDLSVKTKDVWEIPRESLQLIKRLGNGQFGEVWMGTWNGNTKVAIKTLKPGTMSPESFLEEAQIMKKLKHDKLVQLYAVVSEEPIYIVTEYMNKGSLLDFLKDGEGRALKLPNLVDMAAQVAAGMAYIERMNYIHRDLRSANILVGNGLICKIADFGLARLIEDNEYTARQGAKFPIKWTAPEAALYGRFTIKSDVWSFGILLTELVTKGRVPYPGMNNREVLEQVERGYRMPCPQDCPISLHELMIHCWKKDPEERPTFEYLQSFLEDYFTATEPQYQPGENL

Sequence	% activity (Met(D1246H) (h))	% activity (Fyn (h))	% activity (BrSK2 (h))	% activity (DAPK2 (h))	% activity (DCAMKL2 (h))	% activity (Hck (h) activated)	% activity (CHK2(I157T) (h))
FAKLAARLYRKALARQLGVAA [MMI-0300]	125%	74%	83%	32%	81%	82%	43%
HRRIKAWLKKIKALARQLGVAA (Mammalian) [MMI-0500]	150%	83%	84%	3%	56%	67%	3%
KAFAKLAARLYRKALARQLGVAA [MMI-0400]	68%	54%	86%	16%	70%	81%	41%
YARAAARQARAKALNRQLGVA (Mammalian) [MMI-0200]	139%	75%		92%	131%	100%	85%

— patent publication US10500249B2, “Compositions and methods for preventing or treating diseases, conditions, or processes characterized by aberrant fibroblast proliferation and extracellular matrix deposition” (MOERAE MATRIX, INC., priority 2014, dated 2019)
